Experimental data as given in the supplement of paper PMC11246515.
± gives the standard deviation of the averaged measurements.

Experiment: total protein half-life in vivo (active degradation + dilution); higher = more stable protein
[1] = E. coli NCM3722 delta-clpP, growth: N-lim chemostat, doubling time 6 h
[2] = E. coli NCM3722 delta-hslV, growth: N-lim chemostat, doubling time 6 h
[3] = E. coli NCM3722 delta-lon, growth: N-lim chemostat, doubling time 6 h
[4] = E. coli NCM3722 delta-smpB, growth: N-lim chemostat, doubling time 6 h
[5] = wild type E. coli NCM3722, growth: N-lim chemostat, doubling time 6 h
[6] = E. coli NCM3722 delta-clpP delta-lon delta-hslV, growth: N-lim chemostat, doubling time 6 h
[7] = wild type E. coli NCM3722, growth: C-lim chemostat, doubling time 3 h
[8] = wild type E. coli NCM3722, growth: C-lim chemostat, doubling time 6 h
[9] = wild type E. coli NCM3722, growth: C-lim chemostat, doubling time 12 h
[10] = wild type E. coli NCM3722, growth: N-lim chemostat, doubling time 12 h
[11] = wild type E. coli NCM3722, growth: P-lim chemostat, doubling time 6 h
[12] = wild type E. coli NCM3722, growth: P-lim chemostat, doubling time 12 h

| Sequence | total protein half-life in vivo [1] | total protein half-life in vivo [2] | total protein half-life in vivo [3] | total protein half-life in vivo [4] | total protein half-life in vivo [5] | total protein half-life in vivo [6] | total protein half-life in vivo [7] | total protein half-life in vivo [8] | total protein half-life in vivo [9] | total protein half-life in vivo [10] | total protein half-life in vivo [11] | total protein half-life in vivo [12] |
| --- | --- | --- | --- | --- | --- | --- | --- | --- | --- | --- | --- | --- |
| MNEAVSPGALSTLFTDARTHNGWRETPVSDETLREIYALMKWGPTSANCSPARIVFTRTAEGKERLRPALSSGNLQKTLTAPVTAIVAWDSEFYERLPLLFPHGDARSWFTSSPQLAEETAFRNSSMQAAYLIVACRALGLDTGPMSGFDRQHVDDAFFTGSTLKSNLLINIGYGDSSKLYARLPRLSFEEACGLL | 1.43 h | 0.257 ± 0.15 h | 0.612 ± 0.095 h | 0.402 h | 0.94 ± 0.6 h | – | – | – | – | – | – | – |
| MSEQLTDQVLVERVQKGDQKAFNLLVVRYQHKVASLVSRYVPSGDVPDVVQEAFIKAYRALDSFRGDSAFYTWLYRIAVNTAKNYLVAQGRRPPSSDVDAIEAENFESGGALKEISNPENLMLSEELRQIVFRTIESLPEDLRMAITLRELDGLSYEEIAAIMDCPVGTVRSRIFRAREAIDNKVQPLIRR [P0AGB6] | 6.37 ± 0.46 h | 6.86 ± 0.17 h | 7.1 ± 0.53 h | 6.14 ± 0.71 h | 5.76 ± 0.9 h | 5.283 ± 0.0063 h | 3.49 ± 0.3 h | 5.85 ± 0.13 h | 11.8 ± 1.1 h | 11.3 ± 1.4 h | 5.63 ± 0.5 h | 12.6 ± 0.15 h |
| MSRRNTDAITIHSILDWIEDNLESPLSLEKVSERSGYSKWHLQRMFKKETGHSLGQYIRSRKMTEIAQKLKESNEPILYLAERYGFESQQTLTRTFKNYFDVPPHKYRMTNMQGESRFLHPLNHYNS [P0ACH5] | – | – | > 8 h | – | – | 3.42 ± 0.064 h | – | – | – | – | – | – |
| MPDSRKARRIADPGLQPERTSLAWFRTMLGYGALMALAIKHNWHQAGMLFWISIGILAIVALILWHYTRNRNLMDVTNSDFSQFHVVRDKFLISLAVLSLAILFAVTHIHQLIVFIERVA [P0ADL6] | – | – | – | – | – | – | – | – | – | 8.68 h | – | – |
| MDALELLINRRSASRLAEPAPTGEQLQNILRAGMRAPDHKSMQPWHFFVIEGEGRERFSAVLEQGAIAAGSDDKAIDKARNAPFRAPLIITVVAKCEENHKVPRWEQEMSAGCAVMAMQMAAVAQGFGGIWRSGALTESPVVREAFGCREQDKIVGFLYLGTPQLKASTSINVPDPTPFVTYF [P0ACY1] | 5.29 ± 0.85 h | 4.55 ± 0.042 h | 4.85 ± 0.25 h | 4.85 ± 0.27 h | 4.7 ± 0.14 h | 5.15 ± 0.18 h | 2.91 ± 0.03 h | 5.49 ± 0.1 h | 9.81 ± 4.2 h | 7.1 ± 0.14 h | 5.6 ± 0.17 h | 11.6 ± 1.3 h |
| MTPLRVFRKTTPLVNTIRLSLLPLAGLSFSAFAAQVNIAPGSLDKALNQYAAHSGFTLSVDASLTRGKQSNGLHGDYDVESGLQQLLDGSGLQVKPLGNNSWTLEPAPAPKEDALTVVGDWLGDARENDVFEHAGARDVIRREDFAKTGATTMREVLNRIPGVSAPENNGTGSHDLAMNFGIRGLNPRLASRSTVLMDGIPVPFAPYGQPQLSLAPVSLGNMDAIDVVRGGGAVRYGPQSVGGVVNFVTRAIPQDFGIEAGVEGQLSPTSSQNNPKETHNLMVGGTADNGFGTALLYSGTRGSDWREHSATRIDDLMLKSKYAPDEVHTFNSLLQYYDGEADMPGGLSRADYDADRWQSTRPYDRFWGRRKLASLGYQFQPDSQHKFNIQGFYTQTLRSGYLEQGKRITLSPRNYWVRGIEPRYSQIFMIGPSAHEVGVGYRYLNESTHEMRYYTATSSGQLPSGSSPYDRDTRSGTEAHAWYLDDKIDIGNWTITPGMRFEHIESYQNNAITGTHEEVSYNAPLPALNVLYHLTDSWNLYANTEGSFGTVQYSQIGKAVQSGNVEPEKARTWELGTRYDDGALTAEMGLFLINFNNQYDSNQTNDTVTARGKTRHTGLETQARYDLGTLTPTLDNVSIYASYAYVNAEIREKGDTYGNLVPFSPKHKGTLGVDYKPGNWTFNLNSDFQSSQFADNANTVKESADGSTGRIPGFMLWGARVAYDFGPQMADLNLAFGVKNIFDQDYFIRSYDDNNKGIYAGQPRTLYMQGSLKF | 6.44 ± 0.23 h | – | 6.48 h | > 8 h | 5.3 ± 0.92 h | – | 3.66 h | – | – | > 16 h | – | – |
| MDIIGGQHLRQMWDDLADVYGHKTALICESSGGVVNRYSYLELNQEINRTANLFYTLGIRKGDKVALHLDNCPEFIFCWFGLAKIGAIMVPINARLLCEESAWILQNSQACLLVTSAQFYPMYQQIQQEDATQLRHICLTDVALPADDGVSSFTQLKNQQPATLCYAPPLSTDDTAEILFTSGTTSRPKGVVITHYNLRFAGYYSAWQCALRDDDVYLTVMPAFHIDCQCTAAMAAFSAGATFVLVEKYSARAFWGQVQKYRATVTECIPMMIRTLMVQPPSANDQQHRLREVMFYLNLSEQEKDAFCERFGVRLLTSYGMTETIVGIIGDRPGDKRRWPSIGRVGFCYEAEIRDDHNRPLPAGEIGEICIKGIPGKTIFKEYFLNPQATAKVLEADGWLHTGDTGYRDEEDFFYFVDRRCNMIKRGGENVSCVELENIIAAHPKIQDIVVVGIKDSIRDEAIKAFVVLNEGETLSEEEFFRFCEQNMAKFKVPSYLEIRKDLPRNCSGKIIRKNLK | – | 6.57 h | – | 3.61 ± 0.13 h | 4.98 h | 5.31 h | – | – | 11.3 h | 7.9 h | – | 10.7 ± 0.12 h |
